Assays:
Type in all cases: cell-based, Bombyx mori
ERK = test: p-ERK level in cultured PGs (Western blot); conditions: 15 min, immunoblotting
Method: (§1) Dissected PGs were rinsed with Grace's insect culture medium (Gibco) and pre-cultured individually in 100 µl medium in 96-well plates (BD Falcon) at 25°C for 30 min. To evaluate the effect of extracellular Ca^2+ on ecdysone biosynthesis, lepidopteran saline and lepidopteran saline using NaCl as a replacement for CaCl2 were used. For the pharmacological analysis, the PG was pre-treated with the inhibitor for 15 min during the pre-culture period. Following this treatment, the PG was cultured in the desired conditions for the desired period (Ecdysone assay: 3 hours; cAMP assay: 30 min; and Protein phosphorylation assay: 15 min). […]
(§2) Dissected PGs were pre-cultured in Grace's culture medium for 30 min, then cultured with or without PDF or PTTH for 15 min. The cultured PGs were sonicated in 50 mM Tris-HCl (pH 6.8) with protease inhibitor cocktail (Complete, Roche) and phosphatase inhibitor cocktail (Wako), lysed in 1x SDS sample buffer excluding 2-mercaptoethanol (2ME) and bromophenol blue (BPB), and the protein concentration was measured using the BCA protein assay kit (Pierce). […]
(§3) Figure 4 Signaling pathways involved in PDF-induced ecdysone biosynthesis. […] The transcript levels of nvd, nm-g, spo, phm, dib and sad were quantified with Q-PCR. […] Statistically significant differences were evaluated by Student's t-test (***P<0.001, **P<0.01). […]

PGs of B. mori = test: Ecdysone biosynthesis in cultured PGs (LC-MS/MS)
Method: Two strains of the silkworm B. mori were used for this study. The p50T strain was used for NGS analysis and tissue distribution analysis, and the Kinshu x Showa strain was used for other experiments. The p50T strain was reared on mulberry leaves at room temperature. The Kinshu x Showa strain was reared on an artificial diet (SilkMate PS: Nihon Nosan Kogyo) at 25°C under a 16L:8D photoperiod. The first feeding day was designated as day 0.
as §1, with “min). Actinomycin D, H-89 and cycloheximide (CHX) were purchased from Sigma; Rapamycin was purchased from Santa Cruz Biotechnology; and LY294002 was purchased from Merck. H-89 was dissolved in water. The other inhibitors were dissolved in DMSO.” for “min).”
Prior to ecdysteroids extraction, the 100 µl of cultured medium was diluted with equal volume of MilliQ water. […] Quantification of ecdysteroids using LC-MS/MS was performed as previously described with some modifications. […] The separated ecdysteroids were quantified with the QTRAP5500 MS/MS system (AB SCIEX) using MRM mode. For the quantitative analysis, standard curves were generated with concentrations of 0.98–1000 ng/ml.
The effect of PDF and DH31 on ecdysone biosynthesis was evaluated in the PGs of B. mori. The PGs of V7 larvae were cultured with PDF or DH31, and the amount of ecdysone synthesized was measured using LC-MS/MS [21]. […]
Figure 3 Prothoracicotropic activities of PDF in vitro. […] Statistically significant differences were evaluated by Student's t-test (***P<0.001, **P<0.01, *P<0.05).

4E-BP = test: p-4E-BP level in cultured PGs (Western blot); conditions: cultured PGs, 15 min; immunoblotting
Method: as §1, §2, §3

B1: PTTH: prothoracicotropic hormone, humoral pathway-mediated tropic hormone (protein, UniProt P17219 116-224, looked up)
Prothoracicotropic hormone: GNIQVENQAIPDPPCTCKYKKEIEDLGENSVPRFIETRNCNKTQQPTCRPPYICKESLYSITILKRRETKSQESLEIPNELKYRWVAESHPVSVACLCTRDYQLRYNNN
modifications: Prothoracicotropic hormone
level of p-ERK (ERK): upregulated
ecdysone biosynthesis without extracellular Ca2+ (PGs of B. mori; Ca2+-free lepidopteran saline (CaCl2 replaced by NaCl), n = 6): did not induce ecdysone biosynthesis
EC50 (PGs of B. mori; dose-response, cultured PGs of V7 larvae, 3 hours, LC-MS/MS, PTTH n = 10–38, read-out: EC50 (ecdysone biosynthesis, prothoracicotropic activity)): 0.108 nM
concentration of highest prothoracicotropic activity (PGs of B. mori; dose-response, cultured PGs of V7 larvae, LC-MS/MS): 10^−9 M
level of p-4E-BP (4E-BP): upregulated by both PDF and PTTH

Reference: paper PMC4114559, “Pigment Dispersing Factor Regulates Ecdysone Biosynthesis via Bombyx Neuropeptide G Protein Coupled Receptor-B2 in the Prothoracic Glands of Bombyx mori” (PLoS ONE, 2014)
